The subject of data set [1] is human PBMC. Put plainly: fibrocyte formation in human PBMC, serum-free medium. The class given is cell-based. The conditions noted are these: 5 days; for ability of SAP to inhibit fibrocyte formation: 100 ng/ml sialidase with 1 μg/ml SAP; for fibrocyte formation / differentiation: 100 ng/ml sialidase, 10 μg/ml DANA or 1 μg/ml SAP. The protocol:
Human peripheral blood was collected from healthy adult volunteers who gave written consent and with specific approval from the Texas A&M University human subjects Institutional Review Board. Peripheral blood mononuclear cells (PBMC) were isolated from blood using Ficoll-Paque Plus (GE Healthcare Biosciences, Piscataway, NJ). Human PBMC were incubated in serum-free medium (FibroLife basal media (LM-0001, Lifeline Cell Technology, Walkersville, MD), supplemented with 10 mM HEPES (Sigma-Aldrich, St. Louis, MO), 1x non-essential amino acids (Sigma-Aldrich), 1 mM sodium pyruvate (Sigma-Aldrich), 2 mM glutamine (Invitrogen, Carlsbad, CA), 100 U/ml penicillin, 100 μg/ml streptomycin (Sigma-Aldrich), and 1x ITS-3 (Sigma-Aldrich) in the presence of absence of 100 ng/ml recombinant human sialidases (Origene, Rockville MD), 10 μg/ml DANA (Calbiochem, San Diego, CA), or 1 μg/ml human SAP (Calbiochem). After 5 days, fibrocytes were counted, and results are presented in FIG. 5.

The subject of data set [2] is human PBMC. Put plainly: IL-6 ELISA of supernatants of human PBMC cultured with NEU3. Type of data set: cell-based. The conditions noted are these: presence or absence of serum; two or five days. The protocol:
To determine the effects of NEU3 on IL-6 production in human PBMC, human peripheral blood was collected from healthy volunteers who gave written consent and with specific approval from the Texas A&M University human subjects review board. PBMC were isolated from the blood using Ficoll-Paque density gradient centrifugation (GE Healthcare, Cincinnati, OH) following the manufacture's protocol. PBMCs were cultured at 10^5 cells/ml in each well of 96-well flat bottom tissue culture plates (VWR, Radnor, PA) with RPMI-1640 (VWR) supplemented with 10% bovine calf serum (BCS) (VWR), 100 U/ml penicillin, 100 μg/ml streptomycin, (VWR) and 2 mM glutamine (VWR) in a final volume of 200 μl per well. Cells were also cultured at 10^5 cells/ml in serum-free medium as described previously in Pilling, D., Vakil, V. & Gomer, R. H. Improved serum-free culture conditions for the differentiation of human and murine fibrocytes. […]
The culture supernatants were collected after two or five days and assayed using an IL-6 ELISA kit (BioLegend, San Diego, CA) following the manufacturer's protocol, reading absorbance with a SynergyMX plate reader (BioTek, Winooski, VT). Statistics were analyzed using Prism software (Graphpad, La Jolla, CA).

The subject of data set [3] is human PBMC. Put plainly: TGF-β1 accumulation by human PBMC (antibody staining and ELISA). The class given is cell-based. Conditions: recombinant sialidase 200 ng/ml; five days. The protocol:
To determine if sialidases might cause cells to accumulate intracellular and extracellular TGF-β1, human PBMC were cultured with sialidases in 96 well plates at 5×10^5 cells/ml and 200 μl/well in FibroLife serum-free medium for five days, then air dried. The levels of TGF-β1 in or on the cells was detected by staining with an antibody against TGF-β1. Photomicrographs were analyzed by counting stained cells (FIG. 7B) and quantifying staining intensity using ImageJ (FIG. 7C).
PBMC were cultured in 96 well plates at 5×10^5 cells/ml and 200 μl/well in FibroLife serum-free medium. When the cells were plated, recombinant human sialidases were added to final concentrations of 200 ng/ml, and DANA or oseltamivir were added to 3 μM. After 5 days, culture supernatants were analyzed using a TGF-β1 ELISA kit (R&D Systems).

Data set [4] can be described thus: recombinant human sialidase activity, 4MU-NANA cleavage at pH 6.4 and 7.0. Type of data set: biochemical. The protocol:
In general, sialidase activity, including human sialidase activity, may be assessed at 37° C. in the presence of buffers ranging in pH from 3.7 to 7.4. Buffers with pH 3.7, 4.0, 4.6, 5.2 and 5.6 are 100 mM sodium acetate buffers. Buffers with pH 5.8, 6.4, 7.0 and 8.0 are based on Phosphate-Buffered Saline (PBS), with addition of 12 N HCl or 1 M NaOH to adjust the pH. Bovine serum albumin (BSA) is added to the buffer at a concentration of 100 ug/ml. Sialidase at a final concentration of 300 ng/ml is then added to the buffer. A sialidase inhibitor is then added to the mixture at a series of final concentrations. The reaction mixture is incubated for 30 minutes to allow the inhibitor to bind the sialidase. The fluorometric substrate 4MU-NANA [2′-(4-Methylumbelliferyl)-α-D-N-acetylneuraminic acid sodium salt hydrate is then added at a final concentration of 200 μM. Control reactions have no added inhibitor. The total volume of each reaction mixture is 0.1 ml. The cleavage of 4MU-NANA is then monitored by fluorescence every 20 minutes for 5 hours with excitation light at 360 nm and the fluorescence emission at 460 nm.
The fluorescence in the absence of sialidases is subtracted from all readings. The fluorescence of known concentrations of 4-methylumbelliferone is used to convert fluorescence to moles of product.
To determine if sialidases have enzymatic activity at the pH of the extracellular environment, sialidases may be assayed at pH 7.0, approximately corresponding to an extracellular pH in a normal tissue, at pH 6.4, approximately corresponding to an extracellular pH in a fibrotic tissue, or both.
In an example assay, recombinant human sialidases were assayed at pH 6.4, approximately corresponding to the extracellular pH that might occur in a fibrotic tissue, and at pH 7.0, approximately corresponding to a normal extracellular pH.

In data set [5] the test system is human PBMC. The data set can be described thus: sialidase staining of human PBMC cultured with recombinant sialidases. The class given is cell-based. The text has this:
In a similar experiment, cells were stained for NEU1, NEU2, NEU3, or NEU4 using antibodies.

B1: NEU3: recombinant human sialidase NEU3 (TP316537, Origene) (protein, UniProt Q9UQ49 1-428, looked up)
Sialidase-3: MEEVTTCSFNSPLFRQEDDRGITYRIPALLYIPPTHTFLAFAEKRSTRRDEDALHLVLRRGLRIGQLVQWGPLKPLMEATLPGHRTMNPCPVWEQKSGCVFLFFICVRGHVTERQQIVSGRNAARLCFIYSQDAGCSWSEVRDLTEEVIGSELKHWATFAVGPGHGIQLQSGRLVIPAYTYYIPSWFFCFQLPCKTRPHSLMIYSDDLGVTWHHGRLIRPMVTVECEVAEVTGRAGHPVLYCSARTPNRCRAEALSTDHGEGFQRLALSRQLCEPPHGCQGSVVSFRPLEIPHRCQDSSSKDAPTIQQSSPGSSLRLEEEAGTPSESWLLYSHPTSRKQRVDLGIYLNQTPLEAACWSRPWILHCGPCGYSDLAALEEEGLFGCLFECGTKQECEQIAFRLFTHREILSHLQGDCTSPGRNPSQFKSN
Consider B1, for which the “ability of SAP to inhibit fibrocyte formation” value in the data set with human PBMC [1] is “partially counteracted”. In addition, in the data set on human PBMC [2], the “extracellular accumulation of IL-6” value is listed as “significantly upregulated”. Further, the “accumulation of TGF-β1” value with human PBMC [3] is “increased both cell-associated and extracellular TGF-β1”. Also, the Sialidase activity worked out at 15.2 ± 1.0 μmole/min/mg protein in data set [4] (pH 6.4) and 8.3 ± 1.2 μmole/min/mg protein in data set [4] (pH 7.0).

B2: NEU2: recombinant human NEU2 (sialidase 2), human neuraminidase 2 (protein, UniProt Q9Y3R4 1-380, looked up)
Sialidase-2: MASLPVLQKESVFQSGAHAYRIPALLYLPGQQSLLAFAEQRASKKDEHAELIVLRRGDYDAPTHQVQWQAQEVVAQARLDGHRSMNPCPLYDAQTGTLFLFFIAIPGQVTEQQQLQTRANVTRLCQVTSTDHGRTWSSPRDLTDAAIGPAYREWSTFAVGPGHCLQLHDRARSLVVPAYAYRKLHPIQRPIPSAFCFLSHDHGRTWARGHFVAQDTLECQVAEVETGEQRVVTLNARSHLRARVQAQSTNDGLDFQESQLVKKLVEPPPQGCQGSVISFPSPRSGPGSPAQWLLYTHPTHSWQRADLGAYLNPRPPAPEAWSEPVLLAKGSCAYSDLQSMGTGPDGSPLFGCLYEANDYEEIVFLMFTLKQAFPAEYLPQ
Consider B2, for which, in the data set on human PBMC [1], the “ability of SAP to inhibit fibrocyte formation” value was “partially counteracted” and the “fibrocyte formation / differentiation” value is on record as “potentiated fibrocyte formation”. The “accumulation of TGF-β1” value in the data set with human PBMC [3] is “increased both cell-associated and extracellular TGF-β1”. In addition, in data set [4] (pH 6.4), the Sialidase activity is recorded as 16.4 ± 1.2 μmole/min/mg protein. In addition, in data set [4] (pH 7.0), the Sialidase activity amounted to 8.9 ± 1.2 μmole/min/mg protein. Besides, the “levels of NEU3 in PBMC” value in the data set with human PBMC [5] is “upregulate levels of NEU3”.

B3: NEU4: recombinant human NEU4 (sialidase 4), human neuraminidase 4 (protein, UniProt Q8WWR8 1-484, looked up)
Sialidase-4: MGVPRTPSRTVLFERERTGLTYRVPSLLPVPPGPTLLAFVEQRLSPDDSHAHRLVLRRGTLAGGSVRWGALHVLGTAALAEHRSMNPCPVHDAGTGTVFLFFIAVLGHTPEAVQIATGRNAARLCCVASRDAGLSWGSARDLTEEAIGGAVQDWATFAVGPGHGVQLPSGRLLVPAYTYRVDRRECFGKICRTSPHSFAFYSDDHGRTWRCGGLVPNLRSGECQLAAVDGGQAGSFLYCNARSPLGSRVQALSTDEGTSFLPAERVASLPETAWGCQGSIVGFPAPAPNRPRDDSWSVGPGSPLQPPLLGPGVHEPPEEAAVDPRGGQVPGGPFSRLQPRGDGPRQPGPRPGVSGDVGSWTLALPMPFAAPPQSPTWLLYSHPVGRRARLHMGIRLSQSPLDPRSWTEPWVIYEGPSGYSDLASIGPAPEGGLVFACLYESGARTSYDEISFCTFSLREVLENVPASPKPPNLGDKPRGCCWPS
Consider B3, for which, in the data set on human PBMC [1], the “ability of SAP to inhibit fibrocyte formation” value was “partially counteracted” and the “fibrocyte formation / differentiation” value is “potentiated fibrocyte formation”. Also, in the data set with human PBMC [3], the “accumulation of TGF-β1” value is “no significant effect”. Besides, in data set [4] (pH 6.4), the Sialidase activity is reported as 3.8 ± 0.8 μmole/min/mg protein. For the same molecule, the Sialidase activity in data set [4] (pH 7.0) is 2.6 ± 0.9 μmole/min/mg protein.

These data come from patent US20250144172A1, “ANTI-FIBROTIC SIALIDASE INHIBITOR COMPOUNDS AND METHODS OF USE” (The Texas A&M University System, priority 2016, published 2025).
